Source: the nanobody polyreactivity screen of Harvey et al. (2022)

Assay: yeast display, Sf9 membrane polyspecificity reagent, FACS + sequencing; frameworks hold sequencing errors
Procedure, shortened: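 Sorting gates, low and high (top ~1%), were placed on anti-HA fluorescence to track expression and on streptavidin fluorescence to track reagent binding. A clone's polyreactivity label is taken from the gate it came out of. The reagent was 10% biotinylated, detergent-solubilized Sf9 membrane, applied for 1 hour at 4 °C to galactose-induced yeast display cells.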

Question: Which “polyreactivity (PSR sort gate)” value does the source give for “QVQLVESGGGLVQAGGSLRLSCAASGFTFSWYPMGWYRQAPGKERELVAAITSGGGTNYADSVKGRFTISRDNAKNTVYLQMNSLIPEDTAVYYCAARGRWFYYLDDYWGQGTQVTVSS” here?
Answer: low polyreactivity

Question: For “QVQLVESGGGLVQAGGSLRLSCAASGFTFSWYTMGWYRQAPGKERELVAAITSGGSTNYADSVKGRFTISRDNAKNTVYLQMNSLKPEDTAVYYCNAYWSYSISGYDYWGQGTQVTVSS”, which “polyreactivity (PSR sort gate)” value is on record?
Answer: low polyreactivity

Question: Which “polyreactivity (PSR sort gate)” value does the source give for “QVQLVESGGGLVQAGGSLRLSCAASGFTFSYNSMGRYRQATGKERELVARISRTGGSTNYADSVKGRFTISRDNAKNTVYLQMNSLKPEDTAVYYCGTGYRYTYGSWGQGTQVTVSS” here?
Answer: high polyreactivity

Question: With “QVQLVESGGGLVQAGGSLRLSCAASGFTFSYYAMGWYRQAPGKERELVAAISGSGGSTYYADSVKGRFTISRDNAKNTVYLQMNSLKPEDTAVYYCNARWRTRGHPEMYHWGQGTQVTVSS” as the sequence, how does the “polyreactivity (PSR sort gate)” value read?
Answer: high polyreactivity

Question: Which “polyreactivity (PSR sort gate)” value does the source give for “QVQLVESGGGLVQAGGSLRLSCAASGFTFSYYAMGWYRQAPGKERELVAAISSGGSTYYADSVKGRFTISRDNAKNTVYLQMHRLKPEDTAVYYCNVLNYSSRHYLFSYDYWGQGTQVTVSS” here?
Answer: high polyreactivity

Question: For “QVQLVESGGGLVQAGGSLRLSCAASGFTFSYYAMGWYRQAPGKERELVAAISWSGGSTYYADSVKGRFTISRDNAKNTVYLQMNSLKPEDTAVYYCARVLTRPGRLDYWGQGTQVTVSS”, which “polyreactivity (PSR sort gate)” value is on record?
Answer: high polyreactivity

Question: With “QVQLVESGGGLVQAGGSLRLSCAASGFTFSYYAMGWYRQAPGKERELVAAITSGGRTYYADSVKGRFTISRDNAKNTVYLQMNSLKPEDTAVYYCATSSQRWFYSGNYWGQGTQVTVSS” as the sequence, how does the “polyreactivity (PSR sort gate)” value read?
Answer: high polyreactivity

Question: With “QVQLVESGGGLVQAGGSLRLSCAASGFTFSYYAMGWYRQAPGKERELVAAITSGGSTYYADYVKGRFTISRDNAKNTVYLQMNRLKPEDTAVYYCNADGWYYPTDDYWGQGTQVTVSS” as the sequence, how does the “polyreactivity (PSR sort gate)” value read?
Answer: low polyreactivity

Question: With “QVQLVESGGGLVQAGGSLRLSCAASGFTFSYYAMGWYRQAPGKERELVATITSGGSTYYADSVKGRFTISRDNAKNTVYLQMNSLKPEDTAVYYCNADWYWRVYWGQGTQVTVSS” as the sequence, how does the “polyreactivity (PSR sort gate)” value read?
Answer: high polyreactivity

Question: With “QVQLVESGGGLVQAGGSLRLSCAASGFTFSYYVMGWYRPAPGKDRELVAAIDWSGDSTYYPDSVKGRFTISRDNAKNTVYLQMISLKPEDTAVYYCAADQHAYYPYYYWGQGTQVTVSS” as the sequence, how does the “polyreactivity (PSR sort gate)” value read?
Answer: low polyreactivity

Question: With “QVQLVESGGGLVQAGGSLRLSCAASGFTFTAYAMGWYRQAPGKERELVAAINWSGSRTYYADSVKGRFTISRDNAKNTVYLQMNSLKPEDTAVYYCNTATSKSSYRHYDYWGQGTQVTVSS” as the sequence, how does the “polyreactivity (PSR sort gate)” value read?
Answer: high polyreactivity

Question: With “QVQLVESGGGLVQAGGSLRLSCAASGFTFTDYAMGWYRQAPAKERELVAVITYDSTYYADSVKGRFTISRDNAKNTVYLQMNSLKPEDTAVYYCAADSYDWGDFDYWGQGTEVTVSS” as the sequence, how does the “polyreactivity (PSR sort gate)” value read?
Answer: low polyreactivity

Question: With “QVQLVESGGGLVQAGGSLRLSCAASGFTFTDYTMGWYIQAPGTEREFVAAISYRGSNTYYADSVKGRFTISRDNAKNTVYLQMNSLKPLDTAVYYCAADSYRYKYNYWGQGTQVTVSS” as the sequence, how does the “polyreactivity (PSR sort gate)” value read?
Answer: high polyreactivity

Question: For “QVQLVESGGGLVQAGGSLRLSCAASGFTFTGNAMGWYRPAPGKERELVAAISRSGGSTFYADSVKGRFTISRDNAKNTVYLQMNSLKPEDTAVYYCAARRRTLNYLYDYWGQGTQVTVSS”, which “polyreactivity (PSR sort gate)” value is on record?
Answer: high polyreactivity

Question: Which “polyreactivity (PSR sort gate)” value does the source give for “QVQLVESGGGLVQAGGSLRLSCAASGFTFTGYAMGWYRQAPGKERELVAAINRSGGTTYYADSVKGRFTISRDNAKNTVYLQMNSLKPEDTAVFYCAAFPSGRHRGDYWGQGTQVTVSS” here?
Answer: high polyreactivity

Question: Which “polyreactivity (PSR sort gate)” value does the source give for “QVQLVESGGGLVQAGGSLRLSCAASGFTFTGYAMGWYRQAPGKERELVAVISSRGGSTYYADSVKGRFTISRDNAKNTVYLQMNSLKPEDTAVYYCAARGSKGFSSPFGYWGQGTQVTVSS” here?
Answer: high polyreactivity

Question: For “QVQLVESGGGLVQAGGSLRLSCAASGFTFTHYAMGWYRQAPGKERELVAAITDTGGGTYYADSVKGRFTISRHNAKNTVYLQMNSLKPQDTAVYYCAKPTSYRGYYSWGQGTQVTVSS”, which “polyreactivity (PSR sort gate)” value is on record?
Answer: high polyreactivity

Question: With “QVQLVESGGGLVQAGGSLRLSCAASGFTFTIYAMGWYRQAPGKERELVATISGRAGRTYYADSVKGRFTISRDNAKNTVYLQMNSLKPEDTAVYYCNAGQWRYPGLYYYWGQGTQVTVSS” as the sequence, how does the “polyreactivity (PSR sort gate)” value read?
Answer: high polyreactivity

Question: With “QVQLVESGGGLVQAGGSLRLSCAASGFTFTKNAMGWYRQAPGKERELVAAISRGGGRTYYADSVKGRFTISRDNAKNTVYLQMNSLKPEDTAVYYCNVDKVGPGYDYWGQGTQVTVSS” as the sequence, how does the “polyreactivity (PSR sort gate)” value read?
Answer: high polyreactivity

Question: For “QVQLVESGGGLVQAGGSLRLSCAASGFTFTKYAMGWYIQATGKERELVAAISRSGSSTYYADSVKGRFTISRDNAKNTVYLQMNSLKPEDTAVYYCAADNGYGDYYYWGQGTQVTVSS”, which “polyreactivity (PSR sort gate)” value is on record?
Answer: high polyreactivity

Question: Which “polyreactivity (PSR sort gate)” value does the source give for “QVQLVESGGGLVQAGGSLRLSCAASGFTFTKYAMGWYRQAPGKERELVAAISGRGGSTYYADSVKGRFTISRDNAKNTVYLQMNSLKPEDTAVYYCAKYRYTVAGYNYWGQGTQVTVSS” here?
Answer: high polyreactivity

Question: For “QVQLVESGGGLVQAGGSLRLSCAASGFTFTNNAMGWYRQAPGKERELVAAIRRSGTNTYYADSVKGRFTISRDNAKNPVYLQMNSLKPEDTAVYYCATDGYEYTDYGSSGYDYWGQGTQVTVSS”, which “polyreactivity (PSR sort gate)” value is on record?
Answer: low polyreactivity

Question: For “QVQLVESGGGLVQAGGSLRLSCAASGFTFTQYVKGWYRQAPGKERELVAAITRGGGSTYYADSVKGRFTISRDNAKNTVYLQMNRLKPEDTAFYYCATRRVEYIRGWVEYDYWGQGTQVTVSS”, which “polyreactivity (PSR sort gate)” value is on record?
Answer: low polyreactivity

Question: Which “polyreactivity (PSR sort gate)” value does the source give for “QVQLVESGGGLVQAGGSLRLSCAASGFTFTRNAMGRYRQAPGKERELVAAITSSGGRTYYADSVKGRFTISRDNAKNTVYLQMNSLKPVDTAVYYCAVYPRYSLPARDYDYWGQGTQVTVSS” here?
Answer: high polyreactivity

Question: For “QVQLVESGGGLVQAGGSLRLSCAASGFTFTRNAMGWYRQAPGKERELVAAISKSGGRTYYADSVKGRFTISRDNAKNTVYLKMNSLKPEDSAVYYCAVVPRPFGLGSDYDYWGQGTQVTVSS”, which “polyreactivity (PSR sort gate)” value is on record?
Answer: high polyreactivity

Question: Which “polyreactivity (PSR sort gate)” value does the source give for “QVQLVESGGGLVQAGGSLRLSCAASGFTFTRNAMGWYRQAPGKERELVAASTWSGGSTYYADSVKGRFTISRDNAKNTVYLQMNSLKPEDTAVYDCAALYRSRYYAGDYWGQGTQVTVSS” here?
Answer: high polyreactivity

Question: For “QVQLVESGGGLVQAGGSLRLSCAASGFTFTRNAMGWYRQAPGKERFVAAITGSGASTYYADSVKGRFTISRDNAKNTVYLQMNSLKPEDTAVYYCNAEYYAGRYRYDYWGQGTQVTVSS”, which “polyreactivity (PSR sort gate)” value is on record?
Answer: high polyreactivity

Question: Which “polyreactivity (PSR sort gate)” value does the source give for “QVQLVESGGGLVQAGGSLRLSCAASGFTFTRYAMGWSRQAPGKETELVAAISSGSRTYYADSVKGRFTISRDNAKNTVYLQMNSLKPEDTAVYYCAAPVYTYYGHYDSWGQGTQVTVSS” here?
Answer: high polyreactivity

Question: Which “polyreactivity (PSR sort gate)” value does the source give for “QVQLVESGGGLVQAGGSLRLSCAASGFTFTRYGMGWYRQSPGKERELVAGISSGGSTNYADSVKGRFTISRDNSKNTVYLQMNSLKPEDTAVYYCAAGFYSHGIELGYWGQGTQVTVSS” here?
Answer: high polyreactivity

Question: Which “polyreactivity (PSR sort gate)” value does the source give for “QVQLVESGGGLVQAGGSLRLSCAASGFTFTSYAMGWYRQAPGKERELVAAINRSGGSTTYADSVKGRFTISRDNAKNTVYLQMNSLNPEDTAVYYCAKAFRGHYWGQGTQVTVSS” here?
Answer: high polyreactivity

Question: With “QVQLVESGGGLVQAGGSLRLSCAASGFTFTTNAMGWYRQAPGKERELVAAISKRGTRTYYADSVKGRFTISRDNAKNTVYLQMNSLKPEDTAVYYCAAASVAGDKFDYWGQGTQVTVSS” as the sequence, how does the “polyreactivity (PSR sort gate)” value read?
Answer: high polyreactivity

Question: Which “polyreactivity (PSR sort gate)” value does the source give for “QVQLVESGGGLVQAGGSLRLSCAASGFTFTTYGMGWSRQAPWKERELVAAISWSGGSTYYADSVKGRFTISRDNAKNTVYLQMNSLNPEYTAVYYCAKDRTYQASTLGYWGQGTQVTVSS” here?
Answer: low polyreactivity

Question: With “QVQLVESGGGLVQAGGSLRLSCAASGFTFTTYVMGSYRQAPGKERELVAAISRRGTSTRYADSVKGRFTISRDNAKNTVYLQMNSLKPEDTAVYYCAADRPYSIVPYDYWGQGTQVTVSS” as the sequence, how does the “polyreactivity (PSR sort gate)” value read?
Answer: high polyreactivity

Question: Which “polyreactivity (PSR sort gate)” value does the source give for “QVQLVESGGGLVQAGGSLRLSCAASGFTFTWNTMGWYRQAPGKERELVAAITTGGRTYYADSVKGRFTISRDNAKNTVYLQMNSLKPEDTAVYYCNKLFIAKYDSWGQGTQVTVSS” here?
Answer: high polyreactivity

Question: For “QVQLVESGGGLVQAGGSLRLSCAASGFTFTYNAMGWYRQAPGKERELVAAITANGGGTNYADSVKGRFTISRDNAKNTVYLQMNSLKPEDTAVYYCAATIVVAVFESLVFYWYTEDNYWGQGTQVTVSS”, which “polyreactivity (PSR sort gate)” value is on record?
Answer: low polyreactivity

Question: Which “polyreactivity (PSR sort gate)” value does the source give for “QVQLVESGGGLVQAGGSLRLSCAASGFTFTYNAMGWYRQAPGKERELVARIRWSTGSTYYADSVKGRFTISRDNAKKTVYLQMNSLKPEDTAVYYCAADGYGWGGSGWQYPHGFGYWGQGTQVTVSS” here?
Answer: low polyreactivity

Question: For “QVQLVESGGGLVQAGGSLRLSCAASGFTFTYYAMGWYRQAPGKERELVAAISRNGGDTYYADSGKGRFTISRDNAKNTVYLQMNSLKPEDSAVYYCNARTPTDSTHFDYWGQGTQVTVSS”, which “polyreactivity (PSR sort gate)” value is on record?
Answer: low polyreactivity

Question: For “QVQLVESGGGLVQAGGSLRLSCAASGFTFTYYAMGWYRQAPGNERELVAAISSGGNTYYADSVKGRFTISRDNAKNTVYLQMNSLKPEDTAVYYCAAQYSKRAWSWTYAYSYFRFDYWGQGTQVTVSS”, which “polyreactivity (PSR sort gate)” value is on record?
Answer: low polyreactivity

Question: With “QVQLVESGGGLVQAGGSLRLSCAASGFTFTYYTMGWYRQAPGKARELVAAISWSGGSTYYADSVKGRLTISRDNANNPVYLQMNSLKPEDTEVYYCNKVGIGYNTKRDYWGQGTQVTVSS” as the sequence, how does the “polyreactivity (PSR sort gate)” value read?
Answer: high polyreactivity

Question: With “QVQLVESGGGLVQAGGSLRLSCAASGFTFTYYTMGWYRQAPGKERELVAGISRSGGSTYYADSVKGRFTISRDNAKNTVYLQMNSLKPEDTAVYYCAAVVRSYSDRYDYWGQGTQVTVSS” as the sequence, how does the “polyreactivity (PSR sort gate)” value read?
Answer: high polyreactivity

Question: Which “polyreactivity (PSR sort gate)” value does the source give for “QVQLVESGGGLVQAGGSLRLSCAASGFTFTYYTMGWYRQAPGKESELVAAISWSGGRTYYADSVKGRFTISRDNAKNTVYLQMNSLKPEDTAVYYCAAVYSSYYSSSYGYWGQGTQVTVSS” here?
Answer: high polyreactivity
